Non-standard residues stand in square brackets, D forms with d. No end group written: not given here.
Columns and labels:
Aβ(1-42) oligomers = biological target: T1, Aβ(1-42) oligomers (Homo sapiens, UniProt P05067); assay: Density gradient centrifugation combined with RP-HPLC: effect of active ingredient on size distribution of Aβ(1-42) aggregates; assay type: biochemical; settings: for quantity of Aβ oligomers in fractions 4 to 6: co-incubation 40 min, vs control without active ingredient
T1 construct: 1 mg of lyophilized Aβ(1-42) (Bachem, Heidelberg); purchased Bachem, Heidelberg
Procedure: For the following examples of embodiments, only one ultracentrifuge and one HPLC system having a suitable separating column and a UV detector were required. In order to determine the reduction of the Aβ oligomer proportion in an aggregate mixture, pretreated and dried Aβ(1-42) peptide was dissolved in buffer and incubated until the greatest possible Aβ oligomer proportion was obtained. The active ingredient to be analyzed was then added to this oligomer-enriched sample.
1 mg of lyophilized Aβ(1-42) (Bachem, Heidelberg) was incubated, after being removed from the freezer, for 10 to 30 min at room temperature (RT) in order to equalize the temperature of the peptide pellet and of the surrounding environment and thus to avoid moisture condensing from the air. Thereafter, the Aβ peptide was dissolved in HFIP (1,1,1,3,3,3-hexafluoro-2-propanol) (Sigma-Aldrich, Taufkirchen) in a concentration of 1 mg/700 μl and incubated overnight at RT with shaking until full dissolution was achieved, in order to ensure that the Aβ(1-42) exists entirely as monomers at this point in time. The Aβ(1-42) was then aliquoted in an amount of 36 μg per Eppendorf vessel. To remove the HFIP, the aliquots were left to stand open under the extractor for approximately 30 min. The rotational vacuum concentrator (rotational vacuum concentrator RVC 2-18, Christ, Mainz-Mombach) was pre-cooled for approximately 30 min. The Aβ(1-42) aliquots were then dried for a further 30 min in the rotational vacuum concentrator so that the last HFIP residues could also evaporate off. The aliquoted, dried Aβ(1-42) was stored at −20° C. until use.
Prior to the experiment, one Aβ(1-42) aliquot was dissolved to 80 μM in 100 μl of 10 mM NaH2PO4/Na2HPO4 buffer (Sigma-Aldrich, Taufkirchen), pH 7.4 and incubated at RT for 6 h with shaking. The incubation time of 6 h was optimized for this specific Aβ from this specific company in order to ensure that the largest possible proportion of the Aβ exists as oligomers, so as to be able to measure the reduction thereof as unambiguously as possible. For other Aβ peptides from other manufacturers, the incubation time may vary and should/can be adapted accordingly.
Thereafter, the active ingredient candidate to be analyzed was added in a quantity of 10 or 20 μM. The co-incubation of the Aβ/active ingredient solution took place for 40 min at RT with continuous shaking. When no active ingredient was added (control), the Aβ solution was treated in the same way.
The samples were then layered onto a pre-formed density gradient (see Table 1). The gradient material used consisted of a 60% strength (w/v) iodixanol solution named Optiprep™ (Axis-Shield, Oslo, Norway). It is a dimeric compound of iohexol having the systematic name 5,5-[(2-hydroxy-1,3-propanediyl)-bis(acetylimino)]bis-[N,N′-bis(2,3-hydroxypropyl)-2,4,6-triiodobenzenedicarboxamide]. […]
The non-linear density gradient was centrifuged at 4° C. and 259,000×g in a TLS-55 swing-out rotor (Beckman-Coulter, Palo Alto, USA) for 3 h in a TL 100 ultracentrifuge (Beckman-Coulter, Palo Alto, USA). The density gradient is measured by refractometric determination of the iodixanol concentration in the individual fractions. An estimate of the size of sedimented protein particles based on the position in the gradient at the end of the centrifugation takes place on the basis of a calibration using marker proteins of known size and shape, which were analyzed under identical centrifugation conditions on the gradient. […]

Aβ oligomers = settings: according to what is presently known; cited from earlier work
transgenic AD mice = settings: oral administration with drinking water; cited from earlier work

T1 sequence (P05067 672-713): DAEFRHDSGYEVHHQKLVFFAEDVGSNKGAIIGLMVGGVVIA
Aβ oligomers, sequence (P05067 672-711 limits assumed): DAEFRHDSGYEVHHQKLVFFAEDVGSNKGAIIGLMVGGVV

In the case of “D3: D-enantiomeric peptide identified by mirror image phage display selection against predominantly monomeric Aβ(1-42); SEQ ID NO: 1 ([dR][dP][dR][dT][dR][dL][dH][dT][dH][dR][dN][dR])”, the “quantity of Aβ oligomers in fractions 4 to 6” value (Aβ(1-42) oligomers; 20 μM D3, 80 μM Aβ(1-42) pre-incubated 6 h) is given as “reduction in the quantity of oligomers”, the “proportion of large aggregates in fractions 11 to 14” value (Aβ(1-42) oligomers; 20 μM D3, vs control without active ingredient) is given as “much greater” and the “effect on toxic Aβ oligomers (conversion into non-toxic, non-amyloidogenic, ThT-negative amorphous aggregates)” value (Aβ oligomers) is given as “destroys the particularly toxic Aβ oligomers”. For the same substance, the “cognitive capabilities of treated transgenic AD mice” value (transgenic AD mice) was “significantly improved cognitive capabilities” and the “plaques in treated transgenic AD mice” value (transgenic AD mice) was “considerably fewer plaques”.

For “D3D3: tandem dimer of the D-peptide D3; SEQ ID NO: 2 ([dR][dP][dR][dT][dR][dL][dH][dT][dH][dR][dN][dR][dR][dP][dR][dT][dR][dL][dH][dT][dH][dR][dN][dR])”, the “quantity of Aβ oligomers in fractions 4 to 6” value (Aβ(1-42) oligomers; 10 μM D3D3, 80 μM Aβ(1-42) pre-incubated 6 h) was “reduction in the quantity of oligomers”, the “proportion of large aggregates in fractions 11 to 14” value (Aβ(1-42) oligomers; 10 μM D3D3, vs control without active ingredient) was “much greater” and the “effect in eliminating oligomeric Aβ species compared with D3” value (Aβ(1-42) oligomers; 10 μM D3D3 versus 20 μM D3) was “much more pronounced effect”.

Reference: US10088487B2, “Method for the quantitative characterization of amyloid and/or aggregating peptides and/or proteins in a sample” (Forschungszentrum Juelich GmbH, priority 2013, dated 2018)
